Assay results from patent publication US10301358B2, “Collagen imaging compositions” (Collagen Medical, LLC, priority 2015, dated 2019).
“Also recorded” adds a separate entry of the source. Bridge positions count the residues as written; N and C are the ends. Ends that are not written are not given here.

How the values were obtained:
collagen = target: T1, collagen (Rattus norvegicus, UniProt P02454+P02466); assay: Uptake into fibrotic myocardial tissue, rat model of healed myocardial infarction; format: in vivo, Sprague Dawley rats; settings: ~1 umol/kg, 3 weeks following infarction, sacrifice 60 minutes post-injection, tissue manganese
T1 construct: from tissue; host or cells: rat heart (normal and infarcted myocardium), in vivo
Description: Tissue samples from normal myocardium and infarcted myocardium are analyzed for manganese and hydroxyproline (collagen) content.

Pharmacokinetics (Rat) = format: in vivo, Sprague Dawley rats; settings: 1.3 umol/kg bolus IV, plasma sampled 2-90 minutes post-injection, ICP-MS
Description: Compound ID No. 1 is formulated at pH 7.5 (TRIS buffer) and administered to Sprague Dawley rats (n=2) at dose of 1.3 umol/kg using a bolus IV injection. Plasma is sampled at 2, 5, 15, 30, and 90 minutes post-injection and analyzed for manganese content using ICP-MS.

[1] = Myocardial perfusion imaging, canine LAD occlusion/reperfusion model; format: in vivo
Description: To mimic severe ischemia, a canine model is used in which an inflatable variable vascular occluder is placed around the left anterior descending coronary artery (LAD) to allow occlusion and reperfusion. Imaging is performed on a 3T clinical scanner 4 days after implantation of the occluder. The conventional saturation recovery pulse sequence for stress perfusion imaging is compared with a segmented inversion method. The purpose of the segmented inversion method is to leverage the steady-state properties of Compound ID No. 1. This segmented inversion recovery pulse sequence provides greater T1 weighting, higher spatial resolution, and greater myocardial tissue contrast. Additionally, since imaging is delayed, the entire heart can be imaged. After baseline MRI scanning, the balloon is inflated. […]
To assess relative perfusion, labeled microspheres are administered at 3 timepoints in the study. […] At autopsy under ultraviolet light, the hypo-perfused myocardium is differentiated from normal myocardium due to the lack of fluorescence in the hypo-perfused tissue. Based on the fluorescence, a sample of the ischemic territory and a sample of the remote myocardium are taken for ex vivo analysis. These tissue samples are weighed, digested in nitric acid, and analyzed for the elements La, Au, Lu (the three microsphere injections) and manganese (Compound ID No. 1) using ICP-MS. […]

[2] = Uptake into fibrotic liver tissue, bile duct ligated (BDL) rats; format: in vivo, Sprague-Dawley rats; settings: ~7.5 μmol/kg, sacrifice after 90 min, BDL vs sham
Description: Bile duct ligated (BDL) rats are selected to assess the uptake of the complexes in fibrotic liver tissue as compared to sham operated animals. In this model, the common bile duct is surgically tied off and the resultant cholestasis results in fibrosis around the bile ducts. Laparotomy is performed in Sprague-Dawley rats with double ligation of the common bile duct with a section between the two ligatures (2-3% isoflurane anesthesia). […] Fibrosis is evident 15 days after ligation and increases with time up to 30 days after ligation, providing defined endpoints for imaging of moderate and severe fibrosis.
Studies are conducted by injecting Compound ID. No. 1 at a dose ˜7.5 μmol/kg. After 90 min, the animals are sacrificed and the 4 liver lobes and abdominal muscle are removed and the manganese concentration quantified by ICP-MS and collagen content quantified using hydroxyproline concentration.

T1 sequence (P02454 152-1207): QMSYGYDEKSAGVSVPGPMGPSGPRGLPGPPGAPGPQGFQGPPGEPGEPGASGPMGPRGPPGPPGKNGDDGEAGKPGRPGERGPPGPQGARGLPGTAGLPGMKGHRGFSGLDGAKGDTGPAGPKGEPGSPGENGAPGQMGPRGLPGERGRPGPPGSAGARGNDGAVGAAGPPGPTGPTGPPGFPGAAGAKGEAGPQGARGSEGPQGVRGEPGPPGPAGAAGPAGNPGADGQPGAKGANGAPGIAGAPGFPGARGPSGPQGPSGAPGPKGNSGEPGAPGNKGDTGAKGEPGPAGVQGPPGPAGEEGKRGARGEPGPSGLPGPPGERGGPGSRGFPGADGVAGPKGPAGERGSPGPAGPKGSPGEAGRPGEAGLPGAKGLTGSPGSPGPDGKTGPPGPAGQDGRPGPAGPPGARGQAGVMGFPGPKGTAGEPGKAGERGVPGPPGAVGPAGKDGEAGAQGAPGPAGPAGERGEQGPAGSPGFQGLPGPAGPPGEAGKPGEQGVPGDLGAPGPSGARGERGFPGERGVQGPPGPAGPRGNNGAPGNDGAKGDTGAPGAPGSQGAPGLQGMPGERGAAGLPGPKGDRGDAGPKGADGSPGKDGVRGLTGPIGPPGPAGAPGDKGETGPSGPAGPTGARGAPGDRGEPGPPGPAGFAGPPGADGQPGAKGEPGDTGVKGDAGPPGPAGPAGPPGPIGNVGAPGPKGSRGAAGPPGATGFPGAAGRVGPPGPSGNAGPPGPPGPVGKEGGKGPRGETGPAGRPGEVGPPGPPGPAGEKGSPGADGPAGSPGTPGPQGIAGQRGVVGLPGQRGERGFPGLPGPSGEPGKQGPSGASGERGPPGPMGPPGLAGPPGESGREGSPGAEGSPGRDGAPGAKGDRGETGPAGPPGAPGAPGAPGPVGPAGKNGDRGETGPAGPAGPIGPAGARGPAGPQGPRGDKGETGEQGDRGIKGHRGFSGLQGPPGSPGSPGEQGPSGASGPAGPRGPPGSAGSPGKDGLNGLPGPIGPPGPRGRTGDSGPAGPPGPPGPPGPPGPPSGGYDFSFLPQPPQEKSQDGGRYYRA
T1 sequence (P02466 86-1125): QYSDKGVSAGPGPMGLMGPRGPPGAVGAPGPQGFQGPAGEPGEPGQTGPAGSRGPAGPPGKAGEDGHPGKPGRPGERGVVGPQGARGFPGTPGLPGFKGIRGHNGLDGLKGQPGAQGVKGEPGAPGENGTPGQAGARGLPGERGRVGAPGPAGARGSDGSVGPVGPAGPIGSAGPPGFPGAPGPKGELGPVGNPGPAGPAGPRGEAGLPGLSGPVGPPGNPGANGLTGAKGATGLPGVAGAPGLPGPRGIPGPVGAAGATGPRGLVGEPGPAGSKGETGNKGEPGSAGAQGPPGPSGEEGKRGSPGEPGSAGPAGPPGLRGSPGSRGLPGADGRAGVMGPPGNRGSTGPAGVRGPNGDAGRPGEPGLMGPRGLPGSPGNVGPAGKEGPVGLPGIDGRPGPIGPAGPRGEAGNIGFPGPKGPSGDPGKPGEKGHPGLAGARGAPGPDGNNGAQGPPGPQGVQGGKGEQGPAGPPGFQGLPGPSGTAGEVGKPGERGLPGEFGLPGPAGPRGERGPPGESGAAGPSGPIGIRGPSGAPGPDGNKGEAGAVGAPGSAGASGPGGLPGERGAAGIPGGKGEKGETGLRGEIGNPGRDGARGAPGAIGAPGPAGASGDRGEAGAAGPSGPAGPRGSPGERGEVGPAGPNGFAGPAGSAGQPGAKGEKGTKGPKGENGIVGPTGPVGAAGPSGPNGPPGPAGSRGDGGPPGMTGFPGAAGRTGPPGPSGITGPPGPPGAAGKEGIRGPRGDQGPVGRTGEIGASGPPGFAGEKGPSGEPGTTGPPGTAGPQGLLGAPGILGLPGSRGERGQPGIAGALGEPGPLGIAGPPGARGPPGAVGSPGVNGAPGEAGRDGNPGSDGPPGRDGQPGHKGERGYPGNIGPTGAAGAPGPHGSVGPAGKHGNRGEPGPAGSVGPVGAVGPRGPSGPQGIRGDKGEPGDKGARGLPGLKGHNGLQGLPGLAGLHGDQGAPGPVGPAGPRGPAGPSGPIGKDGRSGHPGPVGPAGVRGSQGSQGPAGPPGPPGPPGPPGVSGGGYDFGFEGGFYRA

Substance	uptake in normal vs. scarred myocardium (collagen)	pharmacokinetic profile (plasma manganese content) (Pharmacokinetics (Rat))	MR visualization of myocardial perfusion defect ([1]; 7.5 μmol/kg i.v. bolus one minute after coronary artery occlusion, 3T scanner, listed as 1)	Mn concentration in ischemic vs normal myocardium ex vivo ([1]; 7.5 μmol/kg i.v., sacrifice ca. 120 minutes post injection, ICP-MS)	uptake into fibrotic liver tissue (manganese vs hydroxyproline) [2]
Compound ID No. 2: MnCDTAGA linked to terminal nitrogen and lysine epsilon amino groups of peptide SEQ ID No. 2, C-terminus —NH2 amide; FIG. 2 (MnCDTAGA-K(MnCDTAGA)WHCTTK(MnCDTAGA)FPHHYCLY; disulfide 4-13 (inferred); not fully specified (C-terminus); printed as K-W-H-C-T-T-K-F-P-H-H-Y-C-L-Y-Bip)	greater binding in fibrotic cardiac tissue as compared with normal myocardial tissue				
Compound ID No. 1: MnCDTAGA conjugate of cyclic collagen binding peptide SEQ ID No. 1 (G-K-W-H-C-T-T-K-F-P-H-H-Y-C-L-Y-Bip), amidated C-terminus; FIG. 1 (GKWHCTTKFPHHYCLY; MnCDTAGA conjugate; cyclic disulfide; C-terminal amide)	greater binding in fibrotic cardiac tissue as compared with normal myocardial tissue	rapid initial blood clearance	readily visualized; also recorded: positive image contrast in the normally perfused myocardium	preferential deposition in normal vs ischemic cardiac tissue	consistent with uptake of Compound ID No. 1 into fibrotic-rich liver tissue
Compound ID No. 4: MnCDTAGA linked to terminal nitrogen or lysine epsilon amino groups of peptide SEQ ID No. 4, C-terminus —NH2 amide; FIG. 4 (KWHCYTKFPHHYCVY; disulfide 4-13 (inferred); not fully specified (C-terminus); printed as K-W-H-C-Y-T-K-F-P-H-H-Y-C-V-Y-Bip; also: MnCDTAGA on N-terminal amine or lysine ε-amino group)	greater binding in fibrotic cardiac tissue as compared with normal myocardial tissue				
